Kd and GeoMean fluorescence (maximum value) data for 6 molecules are collected here from patent US20220411504A1.

In assay [1] the target is human Kallikrein-2 6-His protein (soluble hK2) (human) (UniProt P20151). As to the kind of experiment: SPR, antibody captured by anti-Fc, soluble hK2 injected. (SPR reads the build-up and loss of mass on a sensor chip optically.)
A further assay addresses HLA-A on cells (human) (UniProt P04439). Description: flow cytometry, IgG1 mAb on cells expressing HLA-A. Background: In flow cytometry, cells or beads pass a laser one at a time.
A further assay addresses HLA-B on cells (human) (UniProt P01889). As to the kind of experiment: flow cytometry, IgG1 mAb on cells expressing HLA-B.
A further assay addresses HLA-C on cells (human) (UniProt P10321). As to the kind of experiment: flow cytometry, IgG1 mAb on cells expressing HLA-C.

As a reminder, the Kd is the equilibrium constant for the complex coming apart. Low values mean tighter binding, high ones weaker binding.

B1: KL2B242 (antibody, human IgG4 S228P, lambda, F234A L235A, V domains shown)
VH: QVQLQESGPGLVKPSETLSLTCTVSGGSISSYYWSWLRQPAGSGLEWIGRLYVSGFTNYNPSLKSRVTLSLDPSRNQLSLKLSSVTAADTAVYYCAGDSGNYWGWFDPWGQGTLVTVSS
VL: SYELTQPPSVSVSPGETASITCSGDQLGENYACWYQQKPGQSPVLVIYQDSKRPSGIPERFSGSNSGNTATLTISGTQALDEADYYCQAWDNSIVVFGGGTKLTVLG
As for B1, in assay [1], the Kd worked out at 0.04 nM.

B2: KL2B53 (antibody, human IgG4 S228P, kappa, F234A L235A, V domains shown)
VH: EVQLVESGGGVVQPGRSLRLSCVASGFTFSSYDIHWVRQAPGKGLEWVAIISYDGSKKDYTDSVKGRFTISRDNSKNTLYLQMDSLRVEDSAVYSCARESGWSHYYYYGMDVWGQGTMVTVSS
VL: DIVMTQSPSSLSASVGDRVTITCRASQDISNYLAWYQQKPGKVPKFLIYAASTLHSGVPSRFSGSGSGTDFTLTISSLQPEDVATYYCQKYNSAPYTFGQGTRLEIKR
B2 had a dissociation constant Kd in assay [1] of 0.08 nM.

B3: KL2B30 (antibody, human IgG4 S228P, kappa, F234A L235A, V domains shown)
VH: QVQLQESGPGLVKPSETLSLTCTVSGGSISSYYWSWIRQPPGKGLEWIGYIYYSGSTNYNPSLKSRVTISVDTSKNQFSLKLSSVTAADTAVYYCAGTTIFGVVTPNFYYGMDVWGQGTTVTVSS
VL: DIQMTQSPSFLSASVGDRVTITCRASQGISSYLAWYQQKPGKAPKFLIYAASTLQSGVPSRFSGSGSGTEFTLTISSLQPEDFATYYCQQLNSYPLTFGGGTKVEIKR
In assay [1], B3 displayed an equilibrium dissociation constant (Kd) of 0.46 nM.

B4: KL2B413 (scFv-LH-Fc) (Fc fusion, not shown: a dimerising Fc or GST)
scFv: EIVLTQSPSFLSASVGDRVTITCRASQGISSYLSWYQQKPGKAPKLLIYATSTLQSGVPSRFSGSGSGTEFTLTISSLQPEDFATYYCQQLNSYPRTFGQGTKVEIKGGSEGKSSGSGSESKSTGGSEVQLVESGGGLVQPGGSLRLSCAASGFTFSSYWMTWVRQAPGKGLEWVANIKQDGSERYYVDSVKGRFTISRDNAKNSLYLQMNSLRAEDTAVYYCARDQNYDILTGHYGMDVWGQGTTVTVSS
The molecule B4 yielded a dissociation constant (Kd) in assay [1] of 34.3 nM.

B5: KL2B359 (scFv-LH-Fc) (Fc fusion, not shown: a dimerising Fc or GST)
scFv: EIVLTQSPATLSLSPGERATLSCRASESVEYFGTSLMHWYQQKPGQPPRLLIYAASNVESGIPARFSGSGSGTDFTLTISSVEPEDFAVYFCQQTRKVPYTFGGGTKVEIKGGSEGKSSGSGSESKSTGGSQVQLQESGPGLVKPSQTLSLTCTVSGNSITSDYAWNWIRQFPGKRLEWIGYISYSGSTTYNPSLKSRVTISRDTSKNQFSLKLSSVTAADTAVYYCATGYYYGSGFWGQGTLVTVSS
B5 gave a Kd in assay [1] of 0.7 to 1 nM.

B6: MHGB689 (antibody, human IgG1, kappa, V domains shown)
VH: QVQLQQSGPGLVKPSQTLSLTCVISGDSVSSNRAAWNWIRQSPSRGLEWLGRTYYRSKWYNDYAVSVKSRITINSDTSKNQISLQLNSVTPEDTAVYYCARVRPGIPFDYWGQGTTVTVSS
VL: DIQMTQSPDSLAVSLGERATINCESSQSVLFSSNKKNYLAWYQQKPGQPPKLLIYWASTRESGVPDRFSGSGSGTDFTLTINRLQAEDVAVYYCQQYNSTPWTFGQGTKVEIKR
On to B6, for which the GeoMean fluorescence (maximum value) was 2540 with HLA-A on cells (human), 5790 with HLA-B on cells (human) and 266 in the assay with HLA-C on cells (human).
